This note sets out measurements from patent US20240368275A1 (ELPIS BIOPHARMACEUTICALS, published 2024).

In experiment [1] the target is T1, human Nectin4-Fc fusion protein (human, UniProt Q96NY8 32-349).
T1 construct: Recombinant protein coated in the scFv ELISA and captured on the anti-hFc chip in the scFv SPR; also called recombinant Nectin4-Fc fusion protein; human Nectin4-Fc protein; not shown: Fc part
T1 sequence (looked up): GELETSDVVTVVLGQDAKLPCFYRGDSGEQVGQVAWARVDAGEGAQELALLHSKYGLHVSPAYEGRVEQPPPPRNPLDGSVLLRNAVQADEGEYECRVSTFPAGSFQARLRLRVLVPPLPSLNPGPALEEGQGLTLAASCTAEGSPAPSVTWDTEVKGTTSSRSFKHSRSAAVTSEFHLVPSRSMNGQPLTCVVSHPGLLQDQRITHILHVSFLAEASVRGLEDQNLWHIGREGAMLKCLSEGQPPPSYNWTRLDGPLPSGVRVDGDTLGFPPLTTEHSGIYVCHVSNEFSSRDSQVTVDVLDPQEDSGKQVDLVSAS
The experiment in a line: SPR Biacore T200, Nectin4-Fc captured on anti-hFc chip, scFv injected. Here is the method: Kinetic analysis of anti-Nectin4 scFvs has been assessed by SPR technology with Biacore T200. The assay was run with Biacore T200 control software version 2.0. Anti-human Fc antibody was immobilized on flow cell 1 and 2 of CM5 sensor chip. For each cycle, 1 ug/mL of human Nectin4-Fc protein was captured for 60 seconds at flow rate of 10 ul/min on flow cell 2 in 1×HBSP buffer on anti-hFc sensor chip. 2-fold serial diluted HIS tag purified anti-Nectin4 scFv was injected onto both reference flow cell 1 and Nectin4-Fc captured flow cell 2 for 150 seconds at flow rate of 30 ul/min followed by wash for 300 seconds. The flow cells were then regenerated with Antibody regeneration buffer (GE) for 30 seconds at flow rate of 30 ul/mins. 8 concentration points from 300-0 nM was assayed per anti-Nectin4 scFv in a 96 well plate. The kinetics of scFvs binding to Nectin4 protein was analyzed with Biacore T200 evaluation software version 3.0. The specific binding response unit was derived from subtraction of binding to reference flow cell 1 from Nectin4 captured flow cell 2.
In general terms: SPR reads the build-up and loss of mass on a sensor chip optically.

Experiment [2] has as its target T1, human Nectin4-Fc fusion protein. As to the kind of experiment: ELISA, coated human Nectin4-Fc, scFv titrated, anti-Flag HRP. Here is the method:
An ELISA assay was developed to determine the EC₅₀ of anti-Nectin4 antibodies. Briefly, 384 well plate was immobilized with human Nectin4-Fc at final concentration of 2 ug/mL in 1×PBS in total volume of 25 uL per well. The plate was incubated overnight at 4° C. followed by blocking with 80 uL of superblock per well for 1 hour. Purified anti-Nectin4 scFvs were 2-fold serial titrated from 200 nM. 25 uL was added to human Nectin4 immobilized wells and incubated for 1 hour with shaking. The Nectin4 binding was detected by adding 25 uL of anti-Flag HRP diluted at 1:5000 in 1×PBST. In between each step, the plate was washed 3 times with 1×PBST in a plate washer. The plate was then developed with 20 uL of TMB substrate for 5 mins and stopped by adding 20 uL of 2 N sulfuric acid. The plate was read at OD450 nm Biotek plate reader and then plotted in Prism 8.1 software.
For orientation: In an ELISA, binding on a coated surface is turned into a signal by an enzyme label.

For experiment [3], the target named is T2, full-length human Nectin4 with C-terminal flag and Myc tags on CHO cells (human, UniProt Q96NY8 32-510).
T2 construct: whole, on cells; also called Nectin4/CHO; CHO/Nectin4; not shown: C-terminal flag and Myc tags of pCMV6-Entry vector
T2 sequence (looked up): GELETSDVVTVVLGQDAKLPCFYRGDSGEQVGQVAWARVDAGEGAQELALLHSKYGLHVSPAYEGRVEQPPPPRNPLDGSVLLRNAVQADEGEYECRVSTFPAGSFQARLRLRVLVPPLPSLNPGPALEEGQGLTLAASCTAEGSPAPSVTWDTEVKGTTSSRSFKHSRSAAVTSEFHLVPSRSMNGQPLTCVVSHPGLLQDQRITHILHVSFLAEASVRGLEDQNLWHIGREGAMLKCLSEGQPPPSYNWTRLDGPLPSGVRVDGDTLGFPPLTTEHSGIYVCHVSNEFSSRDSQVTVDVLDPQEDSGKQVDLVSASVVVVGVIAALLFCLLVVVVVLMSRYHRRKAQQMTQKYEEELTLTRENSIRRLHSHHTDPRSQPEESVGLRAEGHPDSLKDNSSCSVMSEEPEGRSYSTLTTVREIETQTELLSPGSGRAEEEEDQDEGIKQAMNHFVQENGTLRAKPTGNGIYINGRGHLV
The experiment in a line: flow cytometry, scFv on Nectin4/CHO cells. Here is the method:
To determine whether anti-Nectin4 scFvs bind to Nectin4 expressing cells, 200 nM of purified anti-Nectin4 scFv antibodies were diluted in full medium and incubated with Nectin4/CHO and CHO cells in 96 wells plate on ice for 1 hour. Cells were spun down at 1200 rpm for 5 minutes at 4° C. to remove primary antibodies. Cells were then washed once with 200 uL of full medium per well. Samples were detected with premixed anti-His Biotin Streptavidin Alexa fluor 647 by adding 100 uL of diluted secondary antibody and incubated at 4° C. for 30 minutes in the dark. Samples were spun down at 1200 rpm for 5 minutes at 4° C. and washed twice with 200 uL of 1×PBS per well. Reconstituted samples in 200 uL of 1×PBS and read on Attune NxT cytometer. Analysis was done by Attune NxT software plotting the overlay histogram of anti-Nectin4 scFvs binding onto both negative and target cell lines.
In general terms: Flow cytometry measures light scatter and fluorescence of single cells or particles in a stream.

B1: 2021EP023-D06 scFv (scFv, V domains shown)
VH: QVQLVESGAEVKKPGSSVKVSCKASGGTFSSYAISWVRQAPGQGLEWMGGIIPIFGTANYAQKFQGRVTITADESTSTAYMELSSLRSEDTAVYYCARSRPVRGAYYWGQGTLVTVSS
VL: DIQMTQSPSSLSASVGDRVTITCRASQIVNSNYLNWYQQKPGKAPNLLIYGVSNLQVGVPSRFSGSGSGTDFTLSISSLQVEDSATYYCQQSYTTPRYSFGQGTKLEIRR
notes: Purified scFv with C-terminal flag and 6xHis tag
As a reminder, the Kd is the concentration at which binding is half-saturated. The low end stands for tighter binding, the high end for weaker binding. As a reminder, the koff is the rate constant with which the complex falls apart. The low end stands for slow dissociation, the high end for fast dissociation. By kon is commonly meant the rate constant with which the complex forms. A low value points to slow association. In experiment [1], B1 came in with a Kd of 0.407 nM, a koff of 0.000195 s⁻¹ and an on-rate (kon) of 480000 M⁻¹ s⁻¹.

B2: 2021EP030-F02 scFv (scFv, V domains shown)
VH: QVQLQESGPGLVKPSETLSLTCTVSGGSISSSSYYWGWIRQPPGKGLEWIGSIYYSGSTYYNPSLKSRVTISVDTSKNQFSLKLSSVTAADTAVYYCARQANQVVPAAIPWAKPGGTPPNWFDPWGQGTLVTVSS
VL: QLVLTQPPSVSVAPGETARITCGGNNIGSKSVHWYQQKPGQAPVLVIYYDSARPSGIPERVSGSNSGNTATLTISRVEAGDEADYYCQVWDSSSDHPRVFGTGTKLTVL
As usually defined, the EC50 is the concentration needed to bring the measured effect to its halfway point. A lower EC50 goes with higher potency in that assay. In turn, B2 gave a 50% effective concentration (EC50) in experiment [2] of 2.97 nM. In experiment [3], this molecule yielded an EC50 of 0.194 nM. In experiment [1], the Kd came to 1.85 nM, the koff came to 0.000215 s⁻¹ and the kon is 116000 M⁻¹ s⁻¹.

B3: 2021EP032-E06 scFv (scFv, V domains shown)
VH: QVQLVESGAEVKKPGASVKVSCKASGYTFTGYYMHWVRQAPGQGLEWMGRINPNSGGTNYAQKFQGRFTISRDNSKTTLFLQMNSLRAEDTAVYYCAKADYQWVGAIFRLNAFDIWGQGTMVTVSS
VL: VIWMTQSPSSLSASVGDRVTITCRASQGISNYLAWYQQKPGKVPKLLIYAASTLQSGVPSRFSGSGSGTDFTLTISSLQPEDVATYYCQKYNSAPYTFGQGTKLEIK
As for B3, the half-maximal effective concentration (EC50) in experiment [2] was 0.412 nM; in experiment [3] it was less than 0.001 nM.

B4: 2021EP032-D10 scFv (scFv, V domains shown)
VH: EVQLVESGAEVKKPGSSVKVSCKASGGTFSSYAISWVRQAPGQGLEWMGGIIPIFGTANYAQKFQGRVAITADESTSTAYMELSSLRSEDTAVYYCARDLAIVYGSGSYYNHHPRIDYYYYGMDVWGQGTTVTVSS
VL: QSVLTQPRSVSGSPGQSVTISCAGTSSDIGAYNYVSWYQQHPGKAPTLMINDVSKRPSGVPDRFSGSKSGNTASLTISGLQAEDEGDYYCFSYAGSYTLVFGGGTQLTVL
On to B4, for which the EC50 came to 8.76 nM in experiment [2] and 0.29 nM in experiment [3].

B5: 2020EP034-E01 scFv (scFv, V domains shown)
VH: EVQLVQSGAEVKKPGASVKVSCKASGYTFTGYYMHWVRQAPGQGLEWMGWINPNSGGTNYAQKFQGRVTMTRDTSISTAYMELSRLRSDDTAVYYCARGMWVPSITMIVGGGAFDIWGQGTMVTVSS
VL: DVVMTQSPLSLPVTPGEPASMSCRSSESLLHRNGFNYLDWYVQRPGQSPKLLIYMGSYRASGVPDRFSGRGSGTDFALKISRVEAEDVGVYYCMQALQSPPLYTFGPGTKLEIK
In turn, B5 came in with an EC50 in experiment [3] of more than 50 nM. Also, in experiment [1], binding was characterised by a dissociation constant (Kd) of 10.9 nM, the koff stood at 0.000406 s⁻¹ and the kon stood at 37000 M⁻¹ s⁻¹.

B6: 2021EP030-B10 scFv (scFv, V domains shown)
VH: QVQLVESGGDLVNPGRSLRLACTGAGFTFGDYAVSWFRQAPGKGLEWVGFIESKPYGETREYAASVRGRFTISRDDSKGIAYLQMNGLKTEDTGVYYCSSVVAWVAYWGQGTLVTVSS
VL: AIQLTQSPSSLSASIGDRVTITCRASQSVTTYLNWYHQKPGKAPTFLIYGTSALQSGVPSRFSGSGSGTDFTLTISSLQPEDFGIYYCQQSYSLPPTFGGGTNVQIR
B6: the concentration for a half-maximal effect (EC50) in experiment [3] was found to be 24.2 nM.

B7: 2020EP47-F02 scFv (scFv, V domains shown)
VH: QVQLQQWGAGLLKPSETLSLTCAVYGGSFSGYYWSWIRQPPGKGLEWIGEINHSGSTNYNPSLKSRVTISVDTSKNQFSLKLSSVTAADTAVYYCARGWYLGFDYWGQGTLVTVSS
VL: QSVLTQPRSVSGSPGQSVTISCTGTSRDVGGYDYVSWYQQYPGKAPKLMISGVSERPSGVPDRFTGSRSANTASLTISGLQTDDEANYYCCSYAGSFTWVFGDGTKLTVL
notes: also called EP047-F02
As for B7, in experiment [3], it took 4.51 nM to reach a half-maximal effect (EC50).

B8: 2020EP034-B09 scFv (scFv, V domains shown)
VH: EVQLVQSGAEVKKPGASVKVSCKASGYTFTGYYMHWVRQAPGQGLEWMGRINPNSGGTNYAQKFQGRVTMTRDTSISTAYMELSGLRSDDTAVYFCARVTYNIGWYIDYWGQGTLVTVSS
VL: QAVVTQPPSVSVAPGKTATITCGGNNIGSKGVHWYQQKPGQAPVLVIYYDTDRPSGIPERLSGSNSGNTATLTISRVEAGDEADYYCQVWDSSSDHPVFGGGTKLTVL
For B8, the EC50 in experiment [2] was 5.07 nM. For the same molecule, the EC50 in experiment [3] was 0.36 nM. In experiment [1], this molecule yielded a Kd of 1.47 nM, a koff of 0.00018 s⁻¹ and a kon of 122000 M⁻¹ s⁻¹.

B9: 2021EP029-C04 scFv (scFv, V domains shown)
VH: QLQLQQSGPGLVKPSQTLSLTCAISGDSVSSNRAAWSWIRQSPSRGLEWLGRTYYRSKWYNDYAVSVESRIIINPDTSKNQFSLQLNPVTPEDTAVYYCARGSFESTWLWGQGTLVTVSS
VL: QAVVTQPHSVSESPGKTVTISCTRSGGSIANNYVHWYQQRPGSFPTALIYQDNQRRSGVPDRFSGSIDSSSNSASLTISGLKTEDEAEYYCQSFDNNNVVFGGGTQLTVL
For the molecule B9, the EC50 in experiment [2] amounted to 0.857 nM; in experiment [3], 0.001 nM.

B10: 2021EP030-C11 scFv (scFv, V domains shown)
VH: QMQLVQSKPEVKKPGTSVKVSCKASGFTFTSSAVQWVRQARGQRLEWIGWIVVGSGNTNYAQKFQERVTITRDMSTSTAYMELSSLRSEDTAVYYCAADGDYDIEGALDYWGQGTLVTVSS
VL: EIVLTQSPAILSLSPGERATLSCRASQSVSSYLAWYQQKPGQAPRLLIYDASNRATGIPARFSGSGSGTDFTLTISSLEPEDFAVYYCQQRSNWITFGGGTKVEIK
In experiment [2], B10 returned an EC50 of 291 nM. Also, in experiment [3], the EC50 was 13 nM. In experiment [1], this molecule displayed a Kd of 55.5 nM, a koff of 0.000262 s⁻¹ and a kon of 4710 M⁻¹ s⁻¹.
